The target of the series is T1, Recombinant Human FGF23 (Fibroblast Growth Factor 23) (UniProt Q9GZV9).
T1 sequence: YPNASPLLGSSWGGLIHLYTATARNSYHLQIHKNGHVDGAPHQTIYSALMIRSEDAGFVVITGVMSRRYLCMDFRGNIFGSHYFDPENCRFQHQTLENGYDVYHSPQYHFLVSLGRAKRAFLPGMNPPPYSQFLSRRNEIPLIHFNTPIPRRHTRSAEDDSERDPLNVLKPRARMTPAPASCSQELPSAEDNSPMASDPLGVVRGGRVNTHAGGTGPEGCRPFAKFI

As for “Recombinant human uPA (urokinase plasminogen activator)”, the “in vitro proteolysis of FGF23, silver stained SDS-PAGE gel” value is recorded as “smaller fragments are generated on a silver stained SDS-PAGE gel indicating proteolytic cleavage”.

Values taken from patent US20200046811.
